Target: wildtype human transient receptor potential ankyrin 1 channel subunit (hTRPA1_WT) (human) (UniProt O75762)
Experiment: co-IP

hTRPA1_27A splice variant, HA-tagged (natural protein)
normalized fold of enrichment (against HA-tagged WT): 0.71 fold

hTRPA1_27B splice variant, HA-tagged (natural protein)
normalized fold of enrichment (against HA-tagged WT): 0.62 fold
